# In patent US20210269549A1, “ANTI-SAS1B ANTIBODIES, ASSOCIATED METHODS OF USE, AND COMPOSITIONS AND METHODS FOR DETECTING AND TREATING CANCER” (UNIVERSITY OF VIRGINIA PATENT FOUNDATION, priority 2015, published 2021):
# Values joined by “and” are separate entries in the source; they are usually repeats but may differ in a detail not shown here. Identical values can stand only once. “Also recorded” adds a separate entry of the source.
# Key:
# [1] = molecular target: T1, human SAS1B protein with a C-terminal V5 tag expressed by HEK293T cells (Homo sapiens, UniProt Q6HA08); test: Double immunofluorescence on fixed and permeabilized HEK293T cells transfected with SAS1B SV-A with V5 tag; format: cell-based; details: for IF signal / colocalization with V5-tag epitope signal: SV-A transfected HEK293T, PFA fixed, methanol permeabilized, mAbs at 10 ug/ml
# T1 construct: expressed in transfected cells; host or cells: HEK293T
# T1 sequence (Q6HA08 24-431): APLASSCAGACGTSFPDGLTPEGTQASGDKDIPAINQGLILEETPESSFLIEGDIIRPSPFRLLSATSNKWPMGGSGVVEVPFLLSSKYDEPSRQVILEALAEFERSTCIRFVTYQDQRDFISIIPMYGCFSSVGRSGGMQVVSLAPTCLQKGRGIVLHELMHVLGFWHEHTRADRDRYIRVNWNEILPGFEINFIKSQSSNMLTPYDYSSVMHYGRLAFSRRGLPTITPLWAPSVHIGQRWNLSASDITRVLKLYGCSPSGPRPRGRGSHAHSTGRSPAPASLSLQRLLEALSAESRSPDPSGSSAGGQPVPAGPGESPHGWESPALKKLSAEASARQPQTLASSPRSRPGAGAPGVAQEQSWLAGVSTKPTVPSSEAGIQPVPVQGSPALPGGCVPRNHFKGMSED
# Description: Experiments were conducted to determine the specificity of anti-human SAS1B monoclonal antibodies SB1, SB2, SB3, SB4, SB5, SB6 and SB7 against the human SAS1B protein with a C-terminal V5 tag expressed by HEK293T cells by double immuno-fluorescence from two different SAS1B epitopes. HEK293T cells were seeded at ˜100,000 per well of a 24 well plate containing a lysine-coated 12 mm coverslip. 24 hours later, the cells were transfected with 1 ug of SV-A plasmid with 2 ul of TURBOFECT® transfection reagent followed by no change of media. 48 h later the cells were PFA (paraformaldehyde) fixed and methanol permeabilized for an IF study as follows.
# The cells were removed from cell culture media and fixed in 4% PFA in PBS, 300 ul for 15 min. The cells were washed in 1 ml PBS in wells for 3 times and permeabilized in methanol (100%) for 15 min in 0.5 ml at RT. The cells were washed in PBS 1 ml for 3 times and blocked in complete culture media (DMEM) with 5% normal goat serum (NGS) for 30 min (i.e. BB, blocking buffer). The first antibody in BB was added for 1 h at 10 ug/ml for mouse monoclonal antibodies (SB1, SB2, SB3, SB4, SB5, SB6, SB7) and 5 ug/ml for anti-V5 DYLIGHT® 488 (green) rabbit (a rabbit polyclonal antibody to V5 tag). The cells were washed in PBS 3 times. The second antibody in BB (Goat anti-mouse Alexa Flour 594, red) was added for 1 h at 5 ug/ml (1:200 dilution). The cells were washed in PBS 3 times. The cells were mounted in slow fade DAPI 3 ul and stored at 4° C. before confocal imaging.
# [2] = tested on: human uterine cancer cells; test: ADC assay on human uterine cancer cells using Fab-anti-mouse IgG Fc (Duocarmycin DM conjugated or unconjugated); format: cell-based; details: for Cytotoxic effect / Viability: 4 days; for Cell killing effects as antibody-duocarmycin conjugates on SAS1B+ human tumor cells (FIG. 28): uterine tumor cells in vitro; for Viability: 0.01 nM mAb
# Description: The cytotoxic effect of anti-human SAS1B monoclonal antibodies SB1, SB3 and SB4 on human uterine cancer cells was investigated by ADC assay using Fab-anti-mouse IgG Fc conjugated to Duocarmycin DM with a cleavable linker. An average of 3 experiments were done in triplicate. […] At 0.01 nM the viability was only 40% compared to ˜80% viability for SB4 mAb.
# The cytotoxic effect of anti-human SAS1B mAbs SB1, SB2, SB3, SB4 and SB5 on human uterine cancer cells by ADC assay using unconjugated Fab-anti-mouse IgG Fc was examined. An average of 1 or 2 experiments in triplicate were performed. […] See FIGS. 10A-B. The cytotoxic effect of anti-human SAS1B mAbs SB1, SB2, SB3, SB4, and SB5 was tested on human uterine cancer cells by ADC assay using Fab-anti-mouse IgG Fc conjugated to Duocarmycin DM with cleavable linker. An average of 3 experiments were completed in triplicate. […] At 0.01 nM the viability for SB3, SB2, SB4 and SB5 were 42%, 66%, 80% and 87% respectively.
# [3] = molecular target: T2, full-length SAS1B splice variant A polypeptide (Homo sapiens, UniProt Q6HA08); test: Western blot with mammalian cell-expressed recombinant SAS1B, full length; format: binding
# T2 construct: made in house
# T2 sequence (Q6HA08 24-431): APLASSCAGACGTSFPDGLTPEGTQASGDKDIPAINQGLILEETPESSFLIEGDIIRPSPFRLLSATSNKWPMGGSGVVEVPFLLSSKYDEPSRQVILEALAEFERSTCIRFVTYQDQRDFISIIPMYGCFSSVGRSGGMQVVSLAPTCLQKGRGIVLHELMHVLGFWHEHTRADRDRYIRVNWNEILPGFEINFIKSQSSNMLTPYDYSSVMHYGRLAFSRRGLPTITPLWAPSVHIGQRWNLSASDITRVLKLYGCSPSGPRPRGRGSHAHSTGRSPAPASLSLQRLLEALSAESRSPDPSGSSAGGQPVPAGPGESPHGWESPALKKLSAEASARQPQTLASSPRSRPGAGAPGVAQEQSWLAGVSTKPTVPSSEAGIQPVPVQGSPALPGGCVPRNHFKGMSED
# Description: SAS1B monoclonal antibodies were analyzed with mammalian cell-expressed recombinant SAS1B by western blotting.
# human SAS1B = molecular target: T3, human SAS1B (Homo sapiens, UniProt Q6HA08); test: Western blot of human SAS1B probed with anti-human SAS1B murine mAbs; format: binding; details: for Specifically binds human SAS1B (and not mouse SAS1B): Table 1
# T3 construct: made in house; host or cells: E. coli
# T3 sequence (Q6HA08 24-431): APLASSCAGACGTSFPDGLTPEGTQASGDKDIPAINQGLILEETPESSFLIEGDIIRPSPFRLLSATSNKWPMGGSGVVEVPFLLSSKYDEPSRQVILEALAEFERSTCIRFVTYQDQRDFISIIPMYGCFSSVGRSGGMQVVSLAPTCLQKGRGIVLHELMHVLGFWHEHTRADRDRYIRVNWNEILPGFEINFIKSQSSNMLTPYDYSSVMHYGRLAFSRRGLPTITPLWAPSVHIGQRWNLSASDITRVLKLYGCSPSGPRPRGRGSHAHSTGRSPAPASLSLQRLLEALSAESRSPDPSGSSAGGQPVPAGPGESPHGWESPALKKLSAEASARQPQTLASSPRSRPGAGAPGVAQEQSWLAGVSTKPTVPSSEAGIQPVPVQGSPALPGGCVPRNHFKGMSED
# Source text: A western blot of human SAS1B and mouse SAS1B was probed with anti-human SAS1B murine monoclonal antibodies SB1, SB2, SB3, SB4, SB5, SB6, and SB7.
# [4] = Fab-anti-mouse IgG Fc conjugated to Duocarmycin DM with cleavable linker
# [5] = isotype-specific unconjugated Fab
Molecule,Signal on mock transfected HEK293T cells [1],Reactivity on western blot of human SAS1B and mouse SAS1B (human SAS1B),Specificity in western blot for human SAS1B antigen in an E. coli protein background (human SAS1B),Specifically binds human SAS1B (and not mouse SAS1B) (human SAS1B),IF signal / colocalization with V5-tag epitope signal [1],"Cytotoxic effect [2, 4]","Cytotoxic effect [2, 5]",Cell killing effects as antibody-duocarmycin conjugates on SAS1B+ human tumor cells (FIG. 28) [2],Reaction with full-length SAS1B splice variant A polypeptide [3],"Viability [2, 4]"
"SB4: mouse anti-human SAS1B monoclonal antibody, IgG2a; VH SEQ ID NO:16, VL SEQ ID NO:17 (antibody, listed as Mus musculus, V domains shown) VH: EVQLQQSGPELVKPGSSVKISCKPSGYTFTDYNMVWMKQSHGKSLEWIGAINPNNGGTTYNQKFKGKATLTVDKSSSTAYMELRSLTSEDSAVYYCAPNWDWFAYWGQGTLVTVSA VL: DVLMTQTPLSLPVSLGDQASISCRSSQSILHSNGNTYLEWYLQKPGQSPKLLIYKVSNRFSGVPDRFSGSGSGTDFTLKISRVEAEDLGVYYCFQGSHVPFTFGSGTKLEIK",no V5 signal or SAS1B signal,specific to the human SAS1B only,demonstrated specificity,Yes,colocalize (merge) with V5-tag epitope signal; also recorded: recognizing native SAS1B in fixed cells,"cytotoxic effect at 0.01, 0.1 nM and higher concentrations; also recorded: strong cytotoxic effect at 0.1 nM and higher concentrations",no cytotoxic effect,sub-nanomolar concentrations,reacted with the full-length SAS1B splice variant A polypeptide,~80%
"SB3: mouse anti-human SAS1B monoclonal antibody, IgG2b; VH SEQ ID NO:14, VL SEQ ID NO:15 (antibody, listed as Mus musculus, V domains shown) VH: EVQLQQSGPELVKPGSSVKISCKASGYTFTDYNMVWVKQSHGKSLEWIGAVNPNNGGTSYNQKFKGKATLTVDKSSSTAYMELRSLTSEDSAVYYCVPNWDWFAYWGQGTLVTVSA VL: DVLMTQTPLSLPVSLGDQASISCRSSQSLVHSNGNTYLEWYLQKPGQSPNLLIYKVSNRFSGVPDRFSGSGSGTDFTLKISRVEAEDLGVYYCFQGSHVPFTFGSGTKLEIK",no V5 signal or SAS1B signal,specific to the human SAS1B only,demonstrated specificity,Yes,colocalize (merge) with V5-tag epitope signal,strongest cytotoxic effect; also recorded: strong cytotoxic effect at 0.1 nM and higher concentrations,no cytotoxic effect,sub-nanomolar concentrations,reacted with the full-length SAS1B splice variant A polypeptide,40% and 42%

# Further lines, with some results ahead:
Signal on mock transfected HEK293T cells [1],Reactivity on western blot of human SAS1B and mouse SAS1B (human SAS1B),Specificity in western blot for human SAS1B antigen in an E. coli protein background (human SAS1B),Specifically binds human SAS1B (and not mouse SAS1B) (human SAS1B),Molecule,IF signal / colocalization with V5-tag epitope signal [1],"Cytotoxic effect [2, 4]","Cytotoxic effect [2, 5]",Cell killing effects as antibody-duocarmycin conjugates on SAS1B+ human tumor cells (FIG. 28) [2],Reaction with full-length SAS1B splice variant A polypeptide [3],"Viability [2, 4]"
no V5 signal or SAS1B signal,specific to the human SAS1B only,demonstrated specificity,Yes,"SB2: mouse anti-human SAS1B monoclonal antibody, IgG2b; VH SEQ ID NO:14, VL SEQ ID NO:15 (antibody, listed as Mus musculus, V domains shown) VH: EVQLQQSGPELVKPGSSVKISCKASGYTFTDYNMVWVKQSHGKSLEWIGAVNPNNGGTSYNQKFKGKATLTVDKSSSTAYMELRSLTSEDSAVYYCVPNWDWFAYWGQGTLVTVSA VL: DVLMTQTPLSLPVSLGDQASISCRSSQSLVHSNGNTYLEWYLQKPGQSPNLLIYKVSNRFSGVPDRFSGSGSGTDFTLKISRVEAEDLGVYYCFQGSHVPFTFGSGTKLEIK",colocalize (merge) with V5-tag epitope signal,strong cytotoxic effect at 0.1 nM and higher concentrations,no cytotoxic effect,sub-nanomolar concentrations,reacted with the full-length SAS1B splice variant A polypeptide,–
no V5 signal or SAS1B signal,specific to the human SAS1B only,demonstrated specificity,Yes,"SB5: mouse anti-human SAS1B monoclonal antibody, IgG2b; VH SEQ ID NO:16, VL SEQ ID NO:18 (antibody, listed as Mus musculus, V domains shown) VH: EVQLQQSGPELVKPGSSVKISCKPSGYTFTDYNMVWMKQSHGKSLEWIGAINPNNGGTTYNQKFKGKATLTVDKSSSTAYMELRSLTSEDSAVYYCAPNWDWFAYWGQGTLVTVSA VL: DVLMTQIPLSLPVSLGDQASISCRSSQSILHSNGNTYLEWYLQKPGQSPKLLIYKVSNRFSGVPDRFSGSGSGTDFTLKISRVEAEDLGVYYCFQGSHVPFTFGSGTKLEIK",colocalize (merge) with V5-tag epitope signal,strong cytotoxic effect at 0.1 nM and higher concentrations,no cytotoxic effect,sub-nanomolar concentrations,reacted with the full-length SAS1B splice variant A polypeptide,–
no V5 signal or SAS1B signal,reacts with both human and mouse SAS1B,demonstrated specificity,–,"SB1: mouse anti-SAS1B monoclonal antibody, IgG2a; VH SEQ ID NO:12, VL SEQ ID NO:13 (antibody, listed as Mus musculus, V domains shown) VH: EVQLQQSGPELVKPGSSVKISCKASGYTFTDYNMDWVKQSHGKSLEWIGAINPNNGGTSYNQKFKGKATLTVDKSSSTAYMELRSLTSEDSAVYYCATNEYWGQGTTLTVSS VL: NIVMTQSPKSMSMSVGERVTLSCKASENVGTYVSWYQQKPEQSPKLLIYGASNRYTGVPDRFTGSGSATDFTLTISSVQAEDLADYHCGQSYSYPWTFGGGTKLEIK",lack of a signal,no cytotoxic effect,no cytotoxic effect,no cytotoxic effects,reacted with the full-length SAS1B splice variant A polypeptide,–
